Biological target: FLAG-WT CFTR (cystic fibrosis transmembrane conductance regulator) (UniProt P13569 1-1480)
Assay: pull-down

Chain of FLAG-WT CFTR (cystic fibrosis transmembrane conductance regulator) (P13569 whole entry): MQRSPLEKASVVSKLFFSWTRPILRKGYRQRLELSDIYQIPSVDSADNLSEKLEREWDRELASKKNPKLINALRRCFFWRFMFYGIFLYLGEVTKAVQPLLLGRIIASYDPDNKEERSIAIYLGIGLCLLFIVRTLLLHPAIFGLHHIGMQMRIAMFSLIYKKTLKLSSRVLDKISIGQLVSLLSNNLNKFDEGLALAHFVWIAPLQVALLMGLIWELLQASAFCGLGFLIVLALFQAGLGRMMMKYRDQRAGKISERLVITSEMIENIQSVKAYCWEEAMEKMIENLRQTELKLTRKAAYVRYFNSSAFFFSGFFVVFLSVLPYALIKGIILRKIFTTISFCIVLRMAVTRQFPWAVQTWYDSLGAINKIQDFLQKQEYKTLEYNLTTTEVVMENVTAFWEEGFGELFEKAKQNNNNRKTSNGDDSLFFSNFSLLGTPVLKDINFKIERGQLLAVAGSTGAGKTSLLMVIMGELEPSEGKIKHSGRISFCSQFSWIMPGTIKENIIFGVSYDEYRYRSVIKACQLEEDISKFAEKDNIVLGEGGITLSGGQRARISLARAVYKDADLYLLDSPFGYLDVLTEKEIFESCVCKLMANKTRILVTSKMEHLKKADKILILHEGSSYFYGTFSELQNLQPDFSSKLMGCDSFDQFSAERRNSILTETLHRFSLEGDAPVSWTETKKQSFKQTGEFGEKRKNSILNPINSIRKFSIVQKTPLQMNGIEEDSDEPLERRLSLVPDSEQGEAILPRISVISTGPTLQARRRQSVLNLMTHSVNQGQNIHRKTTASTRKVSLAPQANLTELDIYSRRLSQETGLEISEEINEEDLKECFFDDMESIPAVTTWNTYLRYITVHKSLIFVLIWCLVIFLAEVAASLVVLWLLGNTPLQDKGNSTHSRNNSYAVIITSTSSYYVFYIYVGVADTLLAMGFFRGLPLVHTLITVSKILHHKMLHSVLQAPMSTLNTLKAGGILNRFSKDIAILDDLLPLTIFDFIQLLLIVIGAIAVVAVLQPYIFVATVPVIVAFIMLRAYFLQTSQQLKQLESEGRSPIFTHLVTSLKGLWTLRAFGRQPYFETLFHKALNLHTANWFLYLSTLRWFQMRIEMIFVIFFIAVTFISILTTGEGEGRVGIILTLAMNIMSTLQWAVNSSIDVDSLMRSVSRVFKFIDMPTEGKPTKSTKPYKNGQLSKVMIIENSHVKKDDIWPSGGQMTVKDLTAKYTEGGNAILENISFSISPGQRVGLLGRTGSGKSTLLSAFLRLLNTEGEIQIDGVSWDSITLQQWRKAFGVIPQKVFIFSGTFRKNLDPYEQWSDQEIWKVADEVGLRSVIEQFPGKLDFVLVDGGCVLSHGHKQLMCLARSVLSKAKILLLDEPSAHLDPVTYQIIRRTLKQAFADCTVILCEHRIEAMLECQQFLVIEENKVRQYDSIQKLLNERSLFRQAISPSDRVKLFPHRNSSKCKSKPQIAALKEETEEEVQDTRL

B1: GST-His-S-Stx17ΔC (Stx17 1–228) (domain or fragment, UniProt P56962 1-228, looked up)
chain: MSEDEEKVKLRRLEPAIQKFIKIVIPTDLERLRKHQINIEKYQRCRIWDKLHEEHINAGRTVQQLRSNIREIEKLCLKVRKDDLVLLKRMIDPVKEEASAATAEFLQLHLESVEELKKQFNDEETLLQPPLTRSMTVGGAFHTTEAEASSQSLTQIYALPEIPQDQNAAESWETLEADLIELSQLVTDFSLLVNSQQEKIDSIADHVNSAAVNVEEGTKNLGKAAKYK
B1: binds.

Source: article PMC7855269 (FASEB journal : official publication of the Federation of …, 2020)
